According to the DeepSol protein solubility set:

Test: soluble on expression in E. coli; label from the status in PepcDB or PDB records

Row | Sequence | soluble on expression in E. coli
1 | HHHHHHTDPALRAAQQTPLYEQHTLCGARMVDFHGWMMPLHYGSQIDEHHAVRTDAGMFDVSHMTIVDLRGSRTREFLRYLLANDVAKLTKSGKALYSGMLNASGGVIDDLIVYYFTEDFFRLVVNSATREKDLSWITQHAEPFGIEITVRDDLSMIAVQGPNAQAKAATLFNDAQRQAVEGMKPFFGVQAGDLFIATTGYTGEAGYEIALPNEKAADFWRALVEAGVKPCGLGARDTLRLEAGMNLYGQEMDETISPLAANMGWTIAWEPADRDFIGREALEVQREHGTEKLVGLVMTEKGVLRNELPVRFTDAQGNQHEGIITSGTFSPTLGYSIALARVPEGIGETAIVQIRNREMPVKVTKPVFVRNGKAVAGLCGR | soluble
2 | GEASPVDPLRPVVDASIQPLLKEHRIPGMAVAVLKDGKAHYFNYGVANRESGAGVSEQTLFEIGSVSKTLTATLGAYAVVKGAMQLDDKASRHAPWLKGSAFDSITMGELATYSAGGLPLQFPEEVDSSEKMRAYYRQWAPVYSPGSHRQYSNPSIGLFGHLAASSLKQPFAPLMEQTLLPGLGMHHTYVNVPKQAMASYAYGYSKEDKPIRVNPGMLADEAYGIKTSSADLLRFVKANIGGVDDKALQQAISLTHQGHYSVGGMTQGLGWESYAYPVTEQTLLAGNSAKVILEANPTAAPRESGSQVLFNKTGSTNGFGAYVAFVPARGIGIVMLANRNYPIEARIKAAHAILAQLAG | soluble
3 | MEIALERIYGHRLALPQVGAALLFAQEAPPALLLVPEARLRRYRDLSAFGAKVYVNPGLEALEEKALFVLSYEEALSPFPEDPEAWRLLLEVGRAYPREALLSRLLKLGYARDEDYRVLGEVVELGEVRLEFFGDELERLVVRGEERRRHVLLPKPGKAEGFTSKKVLHFPGPVYLDTPALAPKALWPLLAGRPWVALGGGVELPPLELGARPLPPYRGSLKALEKDLARWLAEGKRVHLFVGHARTLEYLKRRLQAFSPLILDRFPGPKGRLALLPGDFEGGAEWGEWVLLTEALVFATGGVRARVRVGEGLSDPGALSPGDYLIHPEHGVGQYLGLETREVLGVKRDYLVLRYKGEGKLYLPVEQLPLLKRHPGTTDDPPELSSLGKNEWQRAKERARKDVEELAGRLLVLQAKRKATPGRAFPPLPEWDPLVEKGFPYELTPDQKRALEEVLRDLESPHPMDRLVSGDVGFGKTEVALRAAHRVVGHGAQVAFLGPTTLLAEQHGKTFRERFQGLPVRVAVLSRFTPPKEEEAILKGLAEGTVDIVIGTHRLLQEDVRFRDLGLLIVDEEHRFGVAQKERIRELKAEVDTLYLSATPIPRTLYSALVGLKDLSSIQTPPPGRKPIKTFLAPFDPLLVREAILFELERGGKVFYVHDRVASIEARRRFLENLVPEARIGVVHGQMPESLIEETMLLFAEGAYDVLLATTIIEAGLDVPEANTILIERADRLGLATLYQLRGRVGRREEEAYAYLFHPPRLTEAAEKRLAAIADLSDLGSGHLLAERDMEIRGVGNLLGPEQHGHIRALSLEVYTELLEEAIRKLKGEAKEERRHVTLDLALSARLPAEYVGSLEARSRYYSRFAEAKSLAELSRLVRELKERYGPLPEEAENFVALARLRLVAERKGVVSITEGLTHLEVVFPRYPLDYDARGLKGLPYRVELTQYPPGFRLEKKGLRPRDYPEALMEVLYLFADL | soluble
4 | SLIKKVKIKKFNGRDFYDMEDYVAVEESYNIFINGEFVKSLSMSPNFLNEFAVGFAISEGFLNKIDKVEVDKNNINIFGEKNDREIKNNKNNKEIKIDIEIIKKIISYEIKAKYWEITGSFHWASMFDLKGNSIIFVEDIGRHNAVDKVIGYAILNNYNLNKLILRYSGRIPSDIVKKAINSGLNIIISKSPPTDKAIELAEENNILLIGFARNGKFNIYTSGRLWEE | soluble
5 | MEPRTIACPHKGCTKMFRDNSAMRKHLHTHGPRVHVCAECGKAFVESSKLKRHQLVHTGEKPFQCTFEGCGKRFSLDFNLRTHVRIHTGDRPYVCPFDGCNKKFAQSTNLKSHILTHAKAKNNQ | soluble
6 | ASMRPVRLMKVFVTRRIPAEGRVALARAADCEVEQWDSDEPIPAKELERGVAGAHGLLCLLSDHVDKRILDAAGANLKVISTMSVGIDHLALDEIKKRGIRVGYTPDVLTDTTAELAVSLLLTTCRRLPEAIEEVKNGGWTSWKPLWLCGYGLTQSTVGIIGLGRIGQAIARRLKPFGVQRFLYTGRQPRPEEAAEFQAEFVSTPELAAQSDFIVVACSLTPATEGLCNKDFFQKMKETAVFINISRGDVVNQDDLYQALASGKIAAAGLDVTSPEPLPTNHPLLTLKNCVILPHIGSATHRTRNTMSLLAANNLLAGLRGEPMPSELKL | soluble
7 | MSSKWITSLFKSVVLTAALVTPFAASAFTEGTDYMVLEKPIPNADKTLIKVFSYACPFCYKYDKAVTGPVSDKVADLVTFTPFHLETKGEYGKQASEVFAVLIAKDKAAGISLFDAKSQFKKAKFAWYAAYHDKKERWSDGKDPAAFIKTGLDAAGMSQADFEAALKDPAVQETLEKWKAAYDVAKIQGVPAYVVNGKYLIYTKNIKSIDSMAELVRELATKK | not soluble
8 | MGSDKIHHHHHHMFWKKDPTVSWERKNINDIDFSRFNVAIIGGTGGLGRAISRELAQRNARVTVVGQTFRDEDLKDKINFVKADLSLVSECKRISHSDEIPYEELTHLIFTTGIFASRQRQATSEGLEKDMAVSYLSRYIIFHDVAKRLGISRTKKDDLPKVFIAGFPGNGQVGDPDDLNSDEKKYSAYATHMNTVAANESLVIDAKDRYTNIDTFGLNPGLIKTNIRNNLLGSDTYLSRITEWIISWTCQSAETYAKTICTLIASPAIESRSGTMFSNKGDAILPSPGLTKDVVEKFMENSELLVEKALRNQSPFTSSNE | not soluble
9 | ILGPHHLDEYVRVWAEYDPAACGRIHYKDMYSLLRVISPPLGLGKKCPHRVACKRLLRMDLPVADDNTVHFNSTLMALIRTALDIKIAKGGADKQQMDAELRKEMMAIWPNLSQKTLDLLVTPHKSTDLTVGKIYAAMMIMEYYRQSKAKKLQAMREEQDRTPLMFQRMEPPSPTQEGGPGQNALPSTQLDPGGALMAHESGLKESPSWVTQRAQEMFQKTGTWSPE | not soluble
10 | MGVFLFDRDCRYTVAGGGEISSAGLTPADFEGSKPHDLFSEAIADELEHYYREALDGHSHSFEQQYRGKHYRVQTVPVRDDNGEVISGLAVSEDVTARRERQRTLERQNERLREFAGVVSHDLRNPLNVAQGRLKLARAECDSEHLDNVAAAIERSNRLIDDLLTLASSGDEVTETASLDLGAVVDGCWQNVPTDGATLVVRSEQTVVADRGRLEQLLENLVRNAVEHAFPQSEVSLDAAEGDASDLTVTVGALEDGFYVEDTGPGIPPEERDDVFKGGYSTAADGTGFGLRIVRQIAEAHGWTVTVADGEHGGARFEVRGIETT | not soluble
11 | MGSDKIHHHHHHMGSSPARMSSGAPAPRVEVECLKAYSAPLEGRRGLLRLDFNENTIGPSPRVLEALRAIPADQIAVYPEYDGLREAVVANLSNRDQGRPGLTQPLSPSQIGLFNGVDAAIHAIFHAYGDRGDRLLTTSPTFGYYTPCAQMQGMKILAIPYEGSDFRFPLQVIRTLLQQKRPRLLLLCNPNNPTGTRLAPEQILELAVAAPETLVVVDELYEAFTGDSVLPQADFSVTPNLLVLRSLAKTAGLAGLRMGFAIGSADVIDRVSRVTGPYDINSFAVTAAFAALDDQAYVDAYVADVLKARDWISARLDASGVPYHLDGGNYLLIWPQQQPTEVEAALRKRGILVRLMTGKPLIDGSLRVSIGTIEQMQQFWQAFATVESLAA | not soluble
12 | MKIAIVTDSTAYLPERIKDHPNLFVIPIPVILDGKIYNEGIDIEADEYYALLNNSKEFPTTSQPALGEVLELYKSIAEQGYDTIISIHLSSGISGFVHTLHGLTDEIPGVALYPYDSKITSMPMGHMVEAALDLTEEKASLEEIFAKLDLIRDNTYAYLIVEDLNNLVRGGRLTNGAALIAGLLKIKPILTFEDGKIVLFEKIRSTKKAFARAEKIIGERNAGIEAPVKLYVIHANNRIVAEKEQAKLQKLYPNAEIEIGHFGPVIGTHLGEKAIGLAISAQ | not soluble
13 | MGSDKIHHHHHHMVDFKEQQQRYWQLLHQPESLFLLHRANDVEHFIALMTDFLAWPELSLEHMLAFIALQQDSFIPDLDRFSQAWFPCRYHSQHKTVSWVPALHKLSKPFLEDDISDARRCLLASFIQPSTLLEPLLSQRESLPIVNPSLMIFHWSRCGSTLVSSSFALLETCRVLSESMLCSDVMHDDHWPLALKPQLVDLCLRLQGRLRLGERKLVIKWNAWDLACWPMLLELYPKSRVLCLIRNPKDIIDSHQRVAGRHMAGGQSLLPTELQTQQMENTDTEPSLDEFRTTVLQYLAQLSLALHQSSRVILLDYHQLTDFKPTTFSTILGWALSEGEIERWQHHWRFDAKQQGQLFTPVVPNEPVPIRECQNPSWQQLLITYNQLLQRLYWDKKA | not soluble
14 | MIPGSTSGISFSRILSRQTSHQDATQHTDAQQAEIQQAAEDSSPGAEVQKFVQSTDEMSAALAQFRNRRDYEKKSSNLSNSFERVLEDEALPKAKQILKLISVHGGALEDFLRQARSLFPDPSDLVLVLRELLRRKDLEEIVRKKLESLLKHVEEQTDPKTLKAGINCALKARLFGKTLSLKPGLLRASYRQFIQSESHEVEIYSDWIASYGYQRRLVVLDFIEGSLLTDIDANDASCSRLEFGQLLRRLTQLKMLRSADLLFVSTLLSYSFTKAFNAEESSWLLLMLSLLQQPHEVDSLLADIIGLNALLLSHKEHASFLQIFYQVCKAIPSSLFYEEYWQEELLMALRSMTDIAYKHEMAEQRRTIEKLS | not soluble
15 | GCALNCSFCSTAKQGFNRNLSTAEIIGQVWLAARELSDNNGTHDKKITNVVMMGMGEPLLNFDNVVSAMNIMMDDLAYGLSKRRVTLSTSGVLPEMERLREVSPVALAVSLHAPTDELRNELVPINKKYPLSQLISLCKRYFKDEPRRKVTFEYVMLKGVNDQPEHASQLIKLLHNVPAKVNLIPFNPFPLTQYQRSSRETIDAFRDKLMKHGINTITRKTRG | not soluble
16 | MGSDKIHHHHHHMNTYHPFSLTTPSTLMIQDWAQTNQNNKEVIAGFTTKNGGVSQKPFESLNTGLHVHDKDADVVKNREYIADMFNTDLQSWVFADQTHDNRVQKVTQRDRGKGAREYHTALKATDGIYTNEKNVFLALCFADCVPLFFYDPVKSLVGVAHAGWKGTVKQIGREMVKQWTEKEGSNPSDIYAVIGPSISGACYTVDDRVMDAVRALPVSADLAANQTAKAQYQLDLKELNRLILMDSGLASEQISVSGLCTESEPSLFYSHRRDQGKTGRMMSFIGMKEA | not soluble
17 | GPGSMNQLISVINELHDAFAGVKMNIKLNLPQIAVVGSQSCGKSSVLESIVGKDFLPRGSGIVTRCPLVLQLVQLPKSNEEEWGEFLHIPNKKFYDFNEIQNEITRRTIEIAGPSAITDKPINLKVYSSAVLNLTLVDLPGLVMNAVGDQPKDIDRQIKDMVTRYVLPKNTIILAISPANTDLATSQSLRLAKQLDPEGVRTVGVLTKIDLMDKGTDCFDVLQNRVLQLRHGFVGVVCRSQQDINDCKSMEDARRSEYEFFANSPIYSPIAEEAGTAYLSKKLNFLLLEHIKAVIPDLKHHVDQLMEATKKQMEKLGMFEQDITEPTAQLLYLIKVFSDALNQTIDGGITDATKELLGGARLDYIFHECFATYVTSLSATKDLTDDYIRINTRNMAGMHATLFPSDQVFVALSKQQINRLEEPCIKCVTFVYEELGKIVEICAGKVDRYPNLKEAVIAICKKMLFDYRLPTSTHVRTIIKAERGFINVKHPMMDELAQRALSNIYGTTSGESSSPPRNSSGPNASAAGGTQADPKQSGKDIKKDDKRGVRDEKRPEKPKEQGNTDSAISPGNKSDMNDVPSRIMLGKTMTMHEQFMNSAIREMVEGYFSIVKGNVADQVPKAITLLMITRLREEVYARLVSELYSDKTAKALLSEPPGIATQRKAAKEMLEALTKAQNALNSVRDYQLTKEPASSMQAGT | soluble
18 | MTTEYLDEERDLPLPRQKKGIDHTQTEPIRGFFGVKDMFAFENVGFTRSSEGKRYLVCGECEQGPVGFVDPVTEMNYVSPERLDVLPDVAAAAVEAGK | not soluble
